Experiments:
[1] = molecular target: VFP (vivid Verde fluorescent protein) (Cyphastrea microphthalma); experiment: SEC
[2] = molecular target: dVFP (VFP T160A) (Cyphastrea microphthalma); experiment: SEC

Substance	stoichiometry N [1]	stoichiometry N [2]
VFP (vivid Verde fluorescent protein) (natural protein)	2	–
dVFP (VFP T160A) (natural protein)	–	2

Reference: paper PMC2855763
